Patent US20250129166A1

Molecular target: full length human PSGL-1 (SEQ ID NO: 3) expressed on heparan sulfate-mutant CHO cells (human) (UniProt Q14242)
Assay: blocking of VISTA-Fc binding to CHO-PSGL-1 cells (the blocked ligand is VISTA-Fc); cells pre-incubated with antibody and read by flow cytometry or HTRF

full length human PSGL-1 (SEQ ID NO: 3) expressed on heparan sulfate-mutant CHO cells (human), sequence (Q14242 42-412 limits assumed, change not shown): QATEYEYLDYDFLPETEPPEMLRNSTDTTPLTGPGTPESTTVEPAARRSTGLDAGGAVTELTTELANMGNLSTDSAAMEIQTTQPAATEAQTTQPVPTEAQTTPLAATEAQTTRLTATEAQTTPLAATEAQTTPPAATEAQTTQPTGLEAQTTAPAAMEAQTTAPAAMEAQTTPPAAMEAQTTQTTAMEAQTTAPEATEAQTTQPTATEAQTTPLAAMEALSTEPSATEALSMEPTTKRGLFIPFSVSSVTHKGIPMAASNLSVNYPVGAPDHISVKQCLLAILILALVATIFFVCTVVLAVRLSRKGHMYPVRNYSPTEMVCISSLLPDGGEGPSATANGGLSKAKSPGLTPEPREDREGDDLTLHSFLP

IC50 (read off the curve): 0.06 µg/mL
Substance: anti-PSGL-1 antibody KPL-1 (BD Biosciences or Biolegend)
